Assay results as given in patent US20230270877A1 (Seagen, published 2023).

Target: T1, human FcγRIIIa (human, UniProt P08637 17-254)
T1 construct: whole, on cells
Assay: flow cytometry on CHO cells transfected with human FcγRIIIa, PE anti-human IgG Fc secondary, GEO mean fluorescence

T1 sequence (P08637 17-254): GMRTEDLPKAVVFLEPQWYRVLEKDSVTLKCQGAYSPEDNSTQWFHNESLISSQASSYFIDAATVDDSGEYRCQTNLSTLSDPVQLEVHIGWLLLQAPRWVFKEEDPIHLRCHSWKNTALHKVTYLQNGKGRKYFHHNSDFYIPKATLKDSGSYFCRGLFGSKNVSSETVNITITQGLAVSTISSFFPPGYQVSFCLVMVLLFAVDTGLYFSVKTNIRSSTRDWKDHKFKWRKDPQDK

B1: SEA-CD40 (nonfucosylated hS2C6) (antibody, human IgG1, kappa)
heavy: not shown
light: DIQMTQSPSSLSASVGDRVTITCRSSQSLVHSNGNTFLHWYQQKPGKAPKLLIYTVSNRFSGVPSRFSGSGSGTDFTLTISSLQPEDFATYFCSQTTHVPWTFGQGTKVEIKRTVAAPSVFIFPPSDEQLKSGTASVVCLLNNFYPREAKVQWKVDNALQSGNSQESVTEQDSKDSTYSLSSTLTLSKADYEKHKVYACEVTHQGLSSPVTKSFNRGEC
notes: also called nonfucosylated humanized S2C6
Q: With B1 as the binder, how does the “EC50 (read off the curve)” value read?
A: Its value is ~1 µg/mL.
